Reference: patent US20220289857A1
Several values for one entry are separate records, joined by “and”; a condition that tells them apart may be missing. Equal entries are not always repeated.

Assays:
[1] = biological target: His-SUMO-huFn14 (soluble human Fn14 aa 28-75 with N-terminal 6xHis-SUMO tag) (human); assay: SPR Biacore T200; His-SUMO-huFn14 amine-coupled, Fab analyte; 1:1 fit
[2] = biological target: cynomolgus macaque Fn14-GST (cynomolgus macaque (Macaca fascicularis)); assay: SPR Biacore T200; cyno Fn14-GST captured by anti-GST, Fab analyte; 1:1 fit
[3] = biological target: His-SUMO-huFn14 (soluble human Fn14 aa 28-75 with N-terminal 6xHis-SUMO tag) (human); assay: SPR Biacore T200; His-SUMO-huFn14 amine-coupled, Fab analyte; average of two runs
[4] = biological target: cynomolgus macaque Fn14-GST (cynomolgus macaque (Macaca fascicularis)); assay: SPR Biacore T200; cyno Fn14-GST captured by anti-GST, Fab analyte; average of two runs
[5] = biological target: human Fn14 (full length) on cells (human) (UniProt Q9NP84); assay: cell-based or functional assay
Chain of human Fn14 (full length) on cells (human) (Q9NP84 28-129): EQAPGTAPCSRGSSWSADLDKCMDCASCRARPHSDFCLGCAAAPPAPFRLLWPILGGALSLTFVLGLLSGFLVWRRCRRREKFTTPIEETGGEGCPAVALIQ

Chain of His-SUMO-huFn14 (soluble human Fn14 aa 28-75 with N-terminal 6xHis-SUMO tag) (human) (chain, as listed by the source limits assumed): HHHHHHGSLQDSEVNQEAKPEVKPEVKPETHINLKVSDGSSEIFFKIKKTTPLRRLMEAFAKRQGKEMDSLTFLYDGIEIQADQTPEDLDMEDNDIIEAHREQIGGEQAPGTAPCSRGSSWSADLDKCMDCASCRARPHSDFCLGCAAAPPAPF
Chain of cynomolgus macaque Fn14-GST (cynomolgus macaque (Macaca fascicularis)) (chain, as listed by the source): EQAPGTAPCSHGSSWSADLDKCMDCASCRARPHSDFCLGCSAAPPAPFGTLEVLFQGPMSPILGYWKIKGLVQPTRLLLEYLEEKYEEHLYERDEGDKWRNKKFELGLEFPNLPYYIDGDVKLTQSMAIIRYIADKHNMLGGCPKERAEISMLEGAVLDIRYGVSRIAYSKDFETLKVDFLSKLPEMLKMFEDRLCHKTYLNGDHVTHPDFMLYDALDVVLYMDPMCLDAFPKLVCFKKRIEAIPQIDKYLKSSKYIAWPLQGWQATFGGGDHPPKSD

Kd [1]	koff [1]	kon [1]	Kd [2]	koff [2]	kon [2]	Kd [3] [nM]	Kd [4] [nM]	ICAM-1 MFI on HRMC, 250 ng/mL rhTWEAK, mAb 0.1 µg/mL [5] [MFI]	Substance
1.8 nM and 1.43 nM	0.00304 s⁻¹ and 0.00279 s⁻¹	1.68e+06 M⁻¹ s⁻¹ and 1.94e+06 M⁻¹ s⁻¹	1.39 nM and 1.21 nM	0.00118 s⁻¹ and 0.00202 s⁻¹	1.31e+06 M⁻¹ s⁻¹ and 1.68e+06 M⁻¹ s⁻¹	1.62	1.3	–	ITEM-4 Fab (enzymatic digest)
–	–	–	–	–	–	–	–	34700	mIgG2b isotype control antibody
–	–	–	–	–	–	–	–	33300	mIgG1 isotype control antibody
